This is an account of results in PMC7251119 (Nature Communications, 2020).

A word on the Kd: it is the free concentration of one partner at which half of the binding sites on the other are occupied at equilibrium, for simple one-to-one binding. The term stoichiometry N denotes the number of molecules, sites or subunits per partner or assembly.

B1: (His)10-MBP-DotL(656-783)–IcmSW–LvgA (complex)
chain 1: GQNEPEPVEDIVEEEVEGALTIFSKLRIDPNAPPILVADKEVFSEPLLPINETRNQMITIERLAGAKDKYAGTVANELIKDFQIATSYPPEERDVIDVQELTGIIRDLSAKISAEREKANKKAAEELT
chain 2: MERDISKCMAKIAASMNAKFYLNDRFVSFDEVFSETGLLPAIAKRADQLCSLCLGYGLGATYDESEGALLGIRVVFDEVTPNVLRLLCMTDVMNELIQGGPSRDYTPLDELMYD
chain 3: MPDLSHEASAKYWFEYLDPMIYRVITFMESVENWTLDGNPELEEAMKQLGQELDDIEKIDLGLLAEEDKFIRIVGNIKSGRGLRLLQAIDTVHPGSASRVLIHAEETSLSSSDPAGFFLKRNIVFERLRLLSRVFCQYRLKLVLRALEGDE
chain 4: MADGDIEIKAGFVDTDLDDRKLTMIDDLNNPLAIVERVYLIWWHWADFHLHVISPHIDTITPAIVIEPELIPGSNDHEFVYSIHDSGSKLSTSKSQDMFSAGMSMCKLFYTIEKMVYILVERLKSGGVSMEAEVQIAFAGHEIAQRKAFESIINLPYNVVVTNFDPGIWGEKYLQNVKRLADKGYGYPPESPRKIYMHPVSSGTTARK
notes: copies: + + +

Data set [1] deals with B1. Nature of the data set: native gel or EMSA. To be noted: both partners purified. For orientation: In EMSA bound probe runs differently from free probe, usually more slowly.
The target in the next data set is VpdB(11-590) (Legionella pneumophila, UniProt Q5ZW60 11-590). Nature of the data set: BLI. To be noted: both partners purified.
Another data set deals with T1, SetA (Legionella pneumophila, UniProt Q5ZU30 1-644).
T1 sequence: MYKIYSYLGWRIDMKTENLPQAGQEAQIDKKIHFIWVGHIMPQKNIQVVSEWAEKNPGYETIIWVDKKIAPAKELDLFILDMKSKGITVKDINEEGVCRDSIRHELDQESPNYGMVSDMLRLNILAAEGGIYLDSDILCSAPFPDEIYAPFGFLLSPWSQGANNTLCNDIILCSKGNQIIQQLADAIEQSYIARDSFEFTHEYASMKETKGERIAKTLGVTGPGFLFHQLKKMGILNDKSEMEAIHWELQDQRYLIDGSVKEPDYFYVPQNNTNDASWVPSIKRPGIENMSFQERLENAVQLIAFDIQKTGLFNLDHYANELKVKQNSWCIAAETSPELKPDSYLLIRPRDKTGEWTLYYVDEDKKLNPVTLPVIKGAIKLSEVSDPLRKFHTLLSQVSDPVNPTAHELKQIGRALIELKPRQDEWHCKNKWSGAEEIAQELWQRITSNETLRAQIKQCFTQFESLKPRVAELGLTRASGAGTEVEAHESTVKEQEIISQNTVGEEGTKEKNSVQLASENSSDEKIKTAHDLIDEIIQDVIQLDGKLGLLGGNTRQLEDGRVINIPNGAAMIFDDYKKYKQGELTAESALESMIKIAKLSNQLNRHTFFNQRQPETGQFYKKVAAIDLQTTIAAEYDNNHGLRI
Put plainly: native gel or EMSA. To be noted: both partners purified.

Data set [2] concerns the molecule itself. Put plainly: SEC; […]; 20 mM Tris-HCl (pH 7.5) plus 100 mM NaCl or 300 mM NaCl; […]. In general terms: In gel filtration, larger molecules generally elute earlier.

In the case of ENETLVSSFKQRLQNIKG [(His)10-YFP-SidH(2183-2200)], in data set [1], the binding result was “binds”.

For the molecule B1, in the data set with VpdB(11-590), the Kd is around 400 nM. Further, the binding result with SetA is “binds”.

B2: SetA(480-644) (domain or fragment)
chain: GAGTEVEAHESTVKEQEIISQNTVGEEGTKEKNSVQLASENSSDEKIKTAHDLIDEIIQDVIQLDGKLGLLGGNTRQLEDGRVINIPNGAAMIFDDYKKYKQGELTAESALESMIKIAKLSNQLNRHTFFNQRQPETGQFYKKVAAIDLQTTIAAEYDNNHGLRI
Regarding B2, in data set [2], the “stoichiometry N” value was 2.

B3: SetA(480-644) (domain or fragment)
chain: GAGTEVEAHESTVKEQEIISQNTVGEEGTKEKNSVQLASENSSDEKIKTAHDLIDEIIQDVIQLDGKLGLLGGNTRQLEDGRVINIPNGAAMIFDDYKKYKQGELTAESALESMIKIAKLSNQLNRHTFFNQRQPETGQFYKKVAAIDLQTTIAAEYDNNHGLRI
As for B3, in data set [1], the binding result is “binds”.
